# In the nanobody polyreactivity screen of Harvey et al. (2022):
# Assay: yeast display, Sf9 membrane polyspecificity reagent, FACS + sequencing; frameworks hold sequencing errors
# Summary of the method: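 Genes from sorted yeast were amplified by colony PCR, read by MiSeq 2 × 250 sequencing and filtered on CDR length. These cells carried a synthetic nanobody library in Saccharomyces cerevisiae BJ5465 and were sorted by FACS into low and high (top ~1%) gates on anti-HA and streptavidin fluorescence. Polyreactivity is labelled according to the gate of origin.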
row,Sequence,polyreactivity (PSR sort gate)
1,QVQLQESGGGLVQAGGSLRLSCAASGTISVHASMGWYRQAPGKERELVAGITDGANTYYADSVKGRFTISRDNSKNTVYLQMNSLKPEDTAVYYCAAYYGTEVHFTYWGQGTQVTVSS,low polyreactivity
2,QVQLVESGGGLVQAGGSLRLSCAASGRTFTGYVMGWYRQAPGKDRELVAGSSRRGGRTYYADSVKGRYTISRDNAKNTVYLQMNSLKPEDTEVYYCAAAVTSSDPYDYWGQGTQVTVSS,high polyreactivity
3,QVQLVETVGGLVQAGGSLRLSCAASGSIFTHYAMGWYREAPGKERELVAAITWSGGSTYYADSVKGRFTISRDNAKNTVYLQMNSLIPEDTAVYYCNVAWVGVSLVYGPFEYDYWGQGTQVTVSS,high polyreactivity
4,QVQLVESGGGLVQAGGSLRLSCAACGSTFLYYAMGWYRQAPGKERELVAGISWDGTSTYYADSVKGRFTISRDNAKNSVYLQMNSLKPEDTAVYYCAAFGWSRVYHWRFEWGQGTQVTVSS,low polyreactivity
5,QVQLVESGGALVQAGGSLRLSCAPSGLTFSDYAMGWYRQAPGKEREFVAGISSGGSTYYADSVKGRFTISRDNAKNTVYFQMKSLKPEDTAVYFCAGTRYNSWPIKFDYWGQGTQVTVSS,high polyreactivity
6,QVQLVESGGGLVQAGGSLRLSCAASGSTFYYNAMGWYRQAPGKERELVAAISGSGGSTYYADSVKGRFTISRDNAKNTVYLQMNSLKPEDTAVYYCAALYGPGREYDYWGQGTQVTVSS,low polyreactivity
7,QVQLVESGGGLVQAGGSLRLICAASGRTFYRYAMGWYRQAPGKERELVAAISRSGTTYYADSVKGRFTISRDNAKNTVYLQMNSLKPEDTAVYYCAAKPAGRQRGGDYWGQGTQVTVSS,high polyreactivity
8,QVQLVESGGGLVQAGGSLRLTCAASGTIFYYNAMRWYRQAPGKERELVAAISWSGSRTYYADSVKGRFTISRDNAKITVYLQMNSLKPEDTAVYYCAAVVRFPFTYDYWGQGTQVTVSS,high polyreactivity
9,QVQLVESGGGLVQAGGSLRLSCAASGSIFAKYAMGWYRQAPGKERELVAAISSGGSTYYADSVKGRFTISRDNAKNTVYLQMNSLKPEDTAVYYCNKPYGKETRYTFKVWYEYNYWGQGTQVTVSS,low polyreactivity
10,QVQLVESGGGLVQAGGSLRLSCAASGSISVVNMGWYRQAPGKERELVASITSSGSTTYADSVKGRFTISRDNAKNTVYLQMNSLKPEDTAVYYCAAVRCRSQPYWYHSMDHWGQGTQVTVSS,low polyreactivity
11,QVQLVESGGGLVQAGGSLRLICAASGIIFWAYDMGWYRQAPGKERELVAAITWGGGSTYYADSVKGRFTISRDNAKNTVYLQMNSLKPEDTAVYYCAADRYVFQGYGPEVDYWGQGTQVTVSS,low polyreactivity
12,QVQLVESGGALLQAGGSLRLSCSASGRIFSANAMGWYRPAPGKERELVAAITYSGATTYYADSVKGRFTISRDNAKNTVYLQMTSLKPEDTAVYDCAADAGYTHYTAEEEYWGQGTQVTVSS,low polyreactivity
13,QVQLVESGGGLVQAGGSLRLSCAASGFIFRSNAMGWYRQAPGKEREFVAAISSRGGSTTYADSVKGRFTISRDNAKNSVYLQMNSLKPEDTAVYYCARDWYYYPQYRQRYYYWGQGTQVTVSS,high polyreactivity
14,QVQLVESGGGLVQAGGSLRLSCAASGSIFPDNAMGWYRQAPGKERELVAAISLSGGRTYYADSVKGRFTISRDNAKNTVYLQMNSLKPEDTAVYYCAAKQRPKSYGPGHYYWGQGTQVTVSS,high polyreactivity
15,QVQLVESGGGLVQAGGSLRLSCAASGSTFNSYAMGWYRQAPGKERELVAAITSSVGSTYYADSVKGRFTISRDNAKYTVYLQMNSLKPEDTAVYYCAADYFSYWYFSGYDYWGQGTQVTVSS,low polyreactivity
16,QVQLVESGGGLVQAGGSLRLSCAASGSIFYRNAMGWYRQAPGKERELVAAITRSDGRTYYADSVKGRFTISRDNAKNTVYLQMNSLKPEDTAVYYCNADHPFPQYEGGSWGQGTQVTVSS,low polyreactivity
17,QVQLVESGGGLVQAGGSLRLSCAASGSTFWYYAMGWYRQAPGKERELVAAITRGASTNYADSVKGRFTISRDNAKNTVYLQMNSLKPEDTAVYYSAAGPARWKGYYWGQGTQVTVSS,high polyreactivity
18,QDQLVESGGGLVQAGGSLRLSCAASGSTFSRNAMGWYRQAPGKERELVAAISWRGGRTYYADSVKGRFTISRDNAKNTVYLQMNSLKPEDTAVYYCAAEHKYRYDYWGQGTQVTVSS,low polyreactivity
19,QVQLVESGGGLVQAGGSLRLSCAASGRIFLKYAMGWYRQAPGKERELVAAISRRGASTYYADSVKGRFTISRDNSKNTVYLQMNSLKPEDTAVYYCKARTSSGMDYWGQGTQVTVSS,high polyreactivity
20,QVQLVESGGGLLQAGGSLRLSCAASGSTFPPYAMGWYRQAPGKERELVAAIDWSDGTTYYADSVKGRFTISRDNAKNTVYLQMNSLKPEDTAVYYCAASLSQSEYDYWGQGTQVTVSS,low polyreactivity
21,QVHLVESGRGFVQAGGSLRLSCAASAFTFHSYAMGWYRQAPGKERELVASISSSGSTNYADSVKGRFTISRDNEKNTVYLQMISLKPEDTAVSYCAAESRYPFIYEYWGQVTQVTVSS,low polyreactivity
22,QVQLVESGGGLVQAGGSLRLSCAASGRIFYWYAMGWYRQAPGKERELVATINQSGSSTYYADSVKGRFTISRDNAKNTVYLQMYSLKPEDTAVYYCNAGGQRPHSVGLVGEMGYWGQGTKVTVSS,high polyreactivity
